Results from patent US20210179717A1 (ALBERT LUDWIGS UNIVERSIT T FREIBURG, published 2021).

Experiments:
peptide M7 (EQLKKSKTL) = target: T1, peptide M7 (EQLKKSKTL) (human); test: solid phase binding assay, immobilized peptide M7
T1 construct: Immobilised peptide from the human Mac-1 αM I-domain
T1 peptide: EQLKKSKTL

[1] = target: human Mac-1 (αMβ2, CD11b/CD18), native, non-activated (WT) (human, UniProt P11215 17-1152; P05107 23-769); test: western blot of CHO cells over-expressing Mac-1
peptide M8 (EEFRIHFT) = target: T2, peptide M8 (EEFRIHFT) (human); test: solid phase binding (ELISA) with immobilized peptides
T2 peptide: EEFRIHFT

[2] = target: T3, scrambled peptide sM7 (KLSLEKQTK); test: as above
T3 construct: Scrambled control of M7
T3 peptide: KLSLEKQTK

B1: anti-M7 (mouse monoclonal antibody, clone RC3, mouse IgG2bκ) (antibody, V domains shown)
VH: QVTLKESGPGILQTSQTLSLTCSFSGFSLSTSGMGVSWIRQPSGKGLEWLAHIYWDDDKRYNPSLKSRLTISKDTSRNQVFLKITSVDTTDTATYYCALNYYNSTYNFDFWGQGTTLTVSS
VL: DIQMTQSPSSLSASLGERVSLTCRASQEISGYLSWHQQKPDGTIKRLLYSTSTLDSGVPKRFSGSRSGSDYSLTISSLESEDFADYYCLQYAISPPTFGGGTKLEIK
notes: Coupled to Alexa Fluor 647 for flow cytometry; also called anti-M7-Alexa 647
B1: binds (peptide M7 (EQLKKSKTL)); binds [1]; no binding (peptide M8 (EEFRIHFT)). B1: no binding [2].
